Results as given in patent US20240133885A1.
One block for each substance: values may come before it.

Key:
[1] = target: J6MO-(vL-vH)-MYC-28z-T2A-Pac; test: NLuc assay, supernatant on NK92MI cells expressing the CAR (no CAR 89)
[2] = target: HIV1 envelop glycoprotein gp120 (HIV1); test: Luc assay, supernatant on HL2/3 cells expressing HIV1 gp120 (control 5700)
Lym1 [3] = test: Luc assay, supernatant on MM1S cells
Lym1 [4] = test: Luc assay, supernatant on BC-1 cells
Lym1 [5] = test: Luc assay, supernatant on Raji cells
Lym1 [6] = test: Luc assay, supernatant on BV173 cells
Lym1 [7] = test: Luc assay, supernatant on JSC-1 cells
Lym1 [8] = test: Luc assay, supernatant on U266 cells
Lym1 [9] = test: Luc assay, supernatant on BC-3 cells
Lym1 [10] = test: Luc assay, supernatant on BCBL-1 cells
[11] = target: CD20-GA10-(vL-vH)-MYC-BBz-T2A-PAC; test: Luc assay, supernatant on NK92MI cells expressing the CAR (parental 510)
[12] = target: CD20-GA10-(vL-vH)-MYC-BBz-T2A-PAC; test: Luc assay, supernatant on Jurkat cells expressing the CAR (parental 484)
[13] = target: CD200R-huDx182-(vL-vH)-Myc-BBz-T2A-PAC; test: NLuc assay, supernatant on 293FT cells transfected with the CAR
[14] = target: FMC63-(vL-vH)-Myc-BBz-T2A-Pac; test: as above
Amyloid [15] = test: Luc assay, supernatant on MM1S cells
Amyloid [16] = test: Luc assay, supernatant on BV173 cells
Amyloid [17] = test: Luc assay, supernatant on JSC-1 cells
Amyloid [18] = test: Luc assay, supernatant on U266 cells
Amyloid [19] = test: Luc assay, supernatant on BC-3 cells
Amyloid [20] = test: Luc assay, supernatant on BCBL-1 cells

Mean Luc activity [1]: 602
Substance: BCMA-ECD-GGSG-NLuc-4xFlag-2xStreptag-8xHis-T2A-Pac (from UniProt Q02223 1-54) (receptor)

Substance: CD8SP-HIV1-3BNC117-(vL-vH)-GGSG-NLuc-4xFLAG-x2STREP-8xHis-T2A-PAC (scFv)
Mean Luc activity [2]: 8870

Substance: CD8SP-HIV1-VR-C01-(vL-vH)-GGSG-NLuc-4xFLAG-x2STREP-8xHis-T2A-PAC (scFv)
Mean Luc activity [2]: 9330

Substance: CD8SP-HIV1-X5-(vL-vH)-GGSG-NLuc-4xFLAG-x2STREP-8xHis-T2A-PAC (scFv)
Mean Luc activity [2]: 12900

Luc activity (Lym1 [3]): 1580 | MEAN LUC ACTIVITY (Lym1 [3]): 1580 | MEAN LUC ACTIVITY (Lym1 [4]): 7390 | MEAN LUC ACTIVITY (Lym1 [5]): 580000 | Luc activity (Lym1 [6]): 5560 | MEAN LUC ACTIVITY (Lym1 [6]): 5560 | Luc activity (Lym1 [7]): 6770 | MEAN LUC ACTIVITY (Lym1 [7]): 6770 | Luc activity (Lym1 [8]): 258 | MEAN LUC ACTIVITY (Lym1 [8]): 258 | Luc activity (Lym1 [9]): 11700 | MEAN LUC ACTIVITY (Lym1 [9]): 11700 | Luc activity (Lym1 [10]): 7780 | MEAN LUC ACTIVITY (Lym1 [10]): 7780
Substance: CD8SP-Lym1(vL-vH)-GGSG-NLuc-AcV5 (scFv)

Mean Luc activity [11]: 1420 | Mean Luc activity [12]: 7610
Substance: CD20-ECx2-ECD-GGSG-TurboLuc16-4xFlag-2xStreptag-8xHis-T2A-Pac (receptor)

Mean Luc activity [13]: 18700
Substance: CD200R-ECD-GGSG-NLuc-4xFlag-2xStreptag-8xHis-T2A-Pac (receptor)

Mean Luc activity [14]: 37800
Substance: SLAMF7-CS1-ECD-GGSG-NLuc-4xFlag-2xStreptag-8xHis-T2A-Pac (receptor)

Luc activity (Amyloid [15]): 8170 | Luc activity (Amyloid [16]): 6220 | Luc activity (Amyloid [17]): 8230 | Luc activity (Amyloid [18]): 3930 | Luc activity (Amyloid [19]): 3110 | Luc activity (Amyloid [20]): 5690
Substance: SP-Amyloid-158-(vL-vH)-GGSG-NLuc-4xFLAG-x2STREP-8xHis-T2A-PAC (scFv)
